# In the supplement of paper PMC7125110:
# ± gives the standard error. Variants at the floor of the assay were thinned out.
# B1: glmS ribozyme (parent)
# chain: AUAAAAGCGCCAGAACUACAGAAAUGUAGUUGACGAGGAGGAGGUUUAUCGAAUUUUCGGCGGAUGCCUCCAAA
# Columns and labels:
# Conditions in all cases: with glucosamine-6-phosphate
# glucosamine-6-phosphate [1] = variants of: B1; experiment: self-cleavage kobs at 40 uM GlcN6P; higher = faster cleavage; RNA array
# How it was run: (§1)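 Barcoded glmS ribozyme variants on sequenced MiSeq chips were transcribed in situ by E. coli RNA polymerase and tracked through a hybridised Cy3 probe at 37 °C. Glucosamine-6-phosphate (40 μM to 10 mM) in HEPES/KCl/Mg(OAc)2 buffer was flowed in, and tiles were imaged over ~14 h. Signals were normalised to baseline and to non-cleaving reference variants; per-tile medians were fit to one- or two-exponential decays to give kobs. kcat and KM came from weighted Michaelis–Menten fits across concentrations.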
# glucosamine-6-phosphate [2] = variants of: B1; experiment: self-cleavage kobs at 640 uM GlcN6P; higher = faster cleavage; RNA array
# How it was run: as §1
# glucosamine-6-phosphate [3] = variants of: B1; experiment: self-cleavage kobs at 2500 uM GlcN6P; higher = faster cleavage; RNA array
# How it was run: as §1
# glucosamine-6-phosphate [4] = variants of: B1; experiment: self-cleavage kobs at 10000 uM GlcN6P; higher = faster cleavage; RNA array
# How it was run: as §1
# glucosamine-6-phosphate [5] = variants of: B1; experiment: self-cleavage kobs at 160 uM GlcN6P; higher = faster cleavage; RNA array
# How it was run: as §1
Variant,self-cleavage kobs at 40 uM GlcN6P (glucosamine-6-phosphate [1]),self-cleavage kobs at 640 uM GlcN6P (glucosamine-6-phosphate [2]),self-cleavage kobs at 2500 uM GlcN6P (glucosamine-6-phosphate [3]),self-cleavage kobs at 10000 uM GlcN6P (glucosamine-6-phosphate [4]),self-cleavage kobs at 160 uM GlcN6P (glucosamine-6-phosphate [5])
G29C U45A,7.41e-05 ± 2.6e-05 s⁻¹,0.000828 ± 0.00023 s⁻¹,0.000499 ± 0.00024 s⁻¹,0.00281 ± 0.00086 s⁻¹,
A33C C71U,< 1e-05 s⁻¹,,,4.08e-05 ± 1e-05 s⁻¹,< 1e-05 s⁻¹
G43C U46G,< 1e-05 s⁻¹,< 1e-05 s⁻¹,< 1e-05 s⁻¹,,< 1e-05 s⁻¹
A12G A15G A53C C67G,< 1e-05 s⁻¹,,,,
C50U A52U,< 1e-05 s⁻¹,< 1e-05 s⁻¹,< 1e-05 s⁻¹,< 1e-05 s⁻¹,< 1e-05 s⁻¹
C19A G43U,< 1e-05 s⁻¹,< 1e-05 s⁻¹,,,
A12C A14G A53U C67G,9.17e-05 ± 2.3e-05 s⁻¹,,,0.00219 ± 0.00062 s⁻¹,
G35C G51A C68U,< 1e-05 s⁻¹,,,,
G32U A53G A64U,< 1e-05 s⁻¹,,,,
G35A C71U,< 1e-05 s⁻¹,< 1e-05 s⁻¹,< 1e-05 s⁻¹,< 1e-05 s⁻¹,< 1e-05 s⁻¹
G60C U69C,< 1e-05 s⁻¹,,,< 1e-05 s⁻¹,
C11G A48U G63C,< 1e-05 s⁻¹,,,< 1e-05 s⁻¹,
A53U C61U,< 1e-05 s⁻¹,,,,< 1e-05 s⁻¹
A39G C71A,0.000536 ± 7.8e-05 s⁻¹,0.00173 ± 0.00045 s⁻¹,0.00277 ± 0.00061 s⁻¹,0.00612 ± 0.0011 s⁻¹,0.000645 ± 9.8e-05 s⁻¹
G40A C58G C70U,< 1e-05 s⁻¹,,,< 1e-05 s⁻¹,
C10A C61U,< 1e-05 s⁻¹,,< 1e-05 s⁻¹,,
C10A A36U,< 1e-05 s⁻¹,< 1e-05 s⁻¹,< 1e-05 s⁻¹,< 1e-05 s⁻¹,< 1e-05 s⁻¹
A14G U54A,0.00167 ± 0.00022 s⁻¹,0.027 ± 0.0081 s⁻¹,0.0173 ± 0.0047 s⁻¹,0.103 ± 0.048 s⁻¹,0.00342 ± 0.0007 s⁻¹
A15C G35A,< 1e-05 s⁻¹,< 1e-05 s⁻¹,< 1e-05 s⁻¹,< 1e-05 s⁻¹,< 1e-05 s⁻¹
G9C U54A,< 1e-05 s⁻¹,,,< 1e-05 s⁻¹,< 1e-05 s⁻¹
G9U U45G A53G G62U,< 1e-05 s⁻¹,,,< 1e-05 s⁻¹,
U30G G51A,< 1e-05 s⁻¹,< 1e-05 s⁻¹,,,< 1e-05 s⁻¹
G37C A39G C50U,< 1e-05 s⁻¹,,,,

Variant,self-cleavage kobs at 40 uM GlcN6P (glucosamine-6-phosphate [1]),self-cleavage kobs at 640 uM GlcN6P (glucosamine-6-phosphate [2]),self-cleavage kobs at 2500 uM GlcN6P (glucosamine-6-phosphate [3]),self-cleavage kobs at 10000 uM GlcN6P (glucosamine-6-phosphate [4]),self-cleavage kobs at 160 uM GlcN6P (glucosamine-6-phosphate [5])
C34A A52U,< 1e-05 s⁻¹,< 1e-05 s⁻¹,,< 1e-05 s⁻¹,
G29C U30G U31A C50U,< 1e-05 s⁻¹,< 1e-05 s⁻¹,,,
A15U G38A U56C,< 1e-05 s⁻¹,,,,
C10U U57A,< 1e-05 s⁻¹,,,< 1e-05 s⁻¹,
C10U U57G,< 1e-05 s⁻¹,,,,
G37U G59A,< 1e-05 s⁻¹,< 1e-05 s⁻¹,,,
A12U A52G C67U,7.05e-05 ± 1.6e-05 s⁻¹,,,0.00179 ± 0.00037 s⁻¹,
C8G C16A A42U U65A,< 1e-05 s⁻¹,,,< 1e-05 s⁻¹,
A39U G59C,< 1e-05 s⁻¹,< 1e-05 s⁻¹,< 1e-05 s⁻¹,< 1e-05 s⁻¹,< 1e-05 s⁻¹
C68G,1.18e-05 ± 2.8e-06 s⁻¹,0.000523 ± 0.00014 s⁻¹,9.11e-05 ± 1.8e-06 s⁻¹,0.000473 ± 9.9e-05 s⁻¹,
A14G G35U G37U G44U C71U,< 1e-05 s⁻¹,,< 1e-05 s⁻¹,,
A14C C70U,0.000159 ± 1.4e-05 s⁻¹,0.000897 ± 9.5e-05 s⁻¹,0.00439 ± 0.0007 s⁻¹,0.00953 ± 0.0013 s⁻¹,0.000308 ± 3.9e-05 s⁻¹
G41U A42U C70A,0.000142 ± 2.3e-05 s⁻¹,,,0.00204 ± 0.00044 s⁻¹,
G35A A39G U57C,< 1e-05 s⁻¹,,< 1e-05 s⁻¹,< 1e-05 s⁻¹,
C34G A42U,< 1e-05 s⁻¹,< 1e-05 s⁻¹,< 1e-05 s⁻¹,< 1e-05 s⁻¹,< 1e-05 s⁻¹
G29C G32C U57G,< 1e-05 s⁻¹,,,,
C8G U46G,< 1e-05 s⁻¹,< 1e-05 s⁻¹,< 1e-05 s⁻¹,< 1e-05 s⁻¹,< 1e-05 s⁻¹
C10A C50G G63C,0.000128 ± 3.3e-05 s⁻¹,,7.48e-05 ± 2.8e-05 s⁻¹,4.91e-05 ± 1.8e-05 s⁻¹,
U47A U54C C71U,0.000577 ± 0.00018 s⁻¹,,,0.0135 ± 0.0039 s⁻¹,
U45G C61G,< 1e-05 s⁻¹,< 1e-05 s⁻¹,< 1e-05 s⁻¹,< 1e-05 s⁻¹,< 1e-05 s⁻¹
A6C C61U,< 1e-05 s⁻¹,,,< 1e-05 s⁻¹,< 1e-05 s⁻¹
G13U A53G G63A C68U,< 1e-05 s⁻¹,,,< 1e-05 s⁻¹,
